Assay results as given in US20200055919A1 (ACCELERON PHARMA, published 2020).
Changes are numbered by the printed parent chain. Names and notes keep the numbering of the source.

Experiments:
BMP6 = target: T1, BMP6 (UniProt P22004 382-513, limits assumed); assay: SPR (Biacore), Fc fusion captured by anti-Fc antibody, ligand injected, 37 C
T1 sequence (looked up): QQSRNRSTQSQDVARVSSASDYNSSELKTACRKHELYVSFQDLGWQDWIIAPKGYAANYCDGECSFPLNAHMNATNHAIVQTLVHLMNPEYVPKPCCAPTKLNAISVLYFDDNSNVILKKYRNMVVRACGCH
Experimental: (§1) A Biacore™-based binding assay was used to compare the ligand binding kinetics of an ActRIIB-Fc:ActRIIB(L79E)-Fc heterodimer with those of unmodified ActRIIB-Fc homodimer. Fusion proteins were captured onto the system using an anti-Fc antibody. Ligands were then injected and allowed to flow over the captured receptor protein at 37° C. Results are summarized in the table below, in which ligand off-rates (kd) most indicative of effective ligand traps are denoted in bold.

GDF8 = target: T2, GDF8 (UniProt O14793 267-375); assay: as above
T2 construct: also called myostatin
T2 sequence (looked up): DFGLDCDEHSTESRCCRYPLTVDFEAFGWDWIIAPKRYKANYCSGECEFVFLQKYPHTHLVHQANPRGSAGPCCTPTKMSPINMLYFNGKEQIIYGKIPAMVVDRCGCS
Experimental: as §1

GDF11 = target: T3, GDF11 (UniProt O95390 299-407); assay: as above
T3 construct: also called BMP11
T3 sequence (looked up): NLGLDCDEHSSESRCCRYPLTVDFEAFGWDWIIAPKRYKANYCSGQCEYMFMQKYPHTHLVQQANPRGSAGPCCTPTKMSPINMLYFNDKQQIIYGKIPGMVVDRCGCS
Experimental: as §1

GDF3 = target: T4, GDF3 (UniProt Q9NR23 251-364); assay: as above
T4 sequence (looked up): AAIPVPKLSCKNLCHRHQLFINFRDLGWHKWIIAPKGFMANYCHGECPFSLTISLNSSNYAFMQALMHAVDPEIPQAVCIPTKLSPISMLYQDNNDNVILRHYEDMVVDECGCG
Experimental: as §1

BMP10 [1] = target: T5, BMP10 (UniProt O95393 317-424); assay: as above
T5 sequence (looked up): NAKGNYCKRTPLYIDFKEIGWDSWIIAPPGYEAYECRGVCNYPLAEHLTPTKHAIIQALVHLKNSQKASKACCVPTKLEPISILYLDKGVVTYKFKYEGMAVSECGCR
Experimental: as §1

activin B = target: T6, activin B (UniProt P09529 293-407); assay: as above
T6 sequence (looked up): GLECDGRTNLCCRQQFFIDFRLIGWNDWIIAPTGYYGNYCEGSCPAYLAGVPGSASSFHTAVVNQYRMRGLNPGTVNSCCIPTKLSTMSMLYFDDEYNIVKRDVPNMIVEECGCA
Experimental: as §1

activin A [2] = target: T7, activin A (UniProt P08476 311-426); assay: as above
T7 sequence (looked up): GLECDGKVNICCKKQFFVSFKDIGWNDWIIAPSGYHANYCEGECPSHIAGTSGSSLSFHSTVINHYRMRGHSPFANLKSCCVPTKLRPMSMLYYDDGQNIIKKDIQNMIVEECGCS
Experimental: as §1

BMP9 = target: T8, BMP9 (UniProt Q9UK05 320-429); assay: as above
T8 sequence (looked up): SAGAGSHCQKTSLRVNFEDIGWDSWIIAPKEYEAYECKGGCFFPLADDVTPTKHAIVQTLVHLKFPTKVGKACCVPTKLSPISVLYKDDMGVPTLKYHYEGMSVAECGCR
Experimental: as §1

BMP10 [3] = target: T5, BMP10; assay: SPR (Biacore), 37 C
Experimental: as §1

activin A [4] = target: T7, activin A; assay: SPR (Biacore), 37 C
Experimental: as §1

B1: ActRIIB-Fc:ActRIIB(L79E)-Fc heterodimer (Fc fusion)
chain 1: GRGEAETRECIYYNANWELERTNQSGLERCEGEQDKRLHCYASWRNSSGTIELVKKGCWEDDFNCYDRQECVATEENPQVYFCCCEGNFCNERFTHLPEAGGPEVTYEPPPTAPT
chain 2: B1 chain 1 with E60L
notes: also called ActRIIB-Fc:ActRIIB(L79E)-Fc heteromer; not shown: linker and engineered G1Fc; linker and complementary engineered G1Fc
- Kd (BMP6): 0.056 nM
- koff (BMP6): 0.018 s⁻¹
- kon (BMP6): 3.3e+08 M⁻¹ s⁻¹
- Kd (GDF8): 0.15 nM
- koff (GDF8): 0.0005 s⁻¹
- kon (GDF8): 3.4e+06 M⁻¹ s⁻¹
- Kd (GDF11): 0.009 nM
- koff (GDF11): 0.00036 s⁻¹
- kon (GDF11): 4e+07 M⁻¹ s⁻¹
- Kd (GDF3): 10 nM
- koff (GDF3): 0.0059 s⁻¹
- kon (GDF3): 580000 M⁻¹ s⁻¹
- Kd (BMP10 [1]): 0.042 nM
- koff (BMP10 [1]): 0.002 s⁻¹
- kon (BMP10 [1]): 4.8e+07 M⁻¹ s⁻¹
- Kd (activin B): 0.025 nM
- koff (activin B): 0.00021 s⁻¹
- kon (activin B): 8.3e+06 M⁻¹ s⁻¹
- Kd (activin A [2]): 0.17 nM
- koff (activin A [2]): 0.0015 s⁻¹
- kon (activin A [2]): 8.8e+06 M⁻¹ s⁻¹
- Kd (BMP9): > 2.8 nM
- fold faster off-rate compared to ActRIIB-Fc homodimer (BMP10 [3]): ~10 fold
- fold faster off-rate compared to ActRIIB-Fc homodimer (activin A [4]): ~10 fold
